# Assay results from article PMC11077067, “Protein G-quadruplex interactions and their effects on phase transitions and protein aggregation”.
# T1: Znf706 (Homo sapiens, UniProt Q9Y5V0 1-76)
# T1 sequence: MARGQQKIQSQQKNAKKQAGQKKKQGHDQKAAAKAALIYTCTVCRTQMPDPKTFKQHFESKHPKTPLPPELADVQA
# T2: Znf706 A2C-AF488 (Homo sapiens, UniProt Q9Y5V0 1-76, A2C)
# T2 sequence: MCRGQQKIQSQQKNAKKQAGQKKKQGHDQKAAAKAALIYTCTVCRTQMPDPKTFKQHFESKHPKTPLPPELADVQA
# T3: Znf706 A2C-MTSL (Homo sapiens, UniProt Q9Y5V0 1-76, A2C)
# T3 sequence: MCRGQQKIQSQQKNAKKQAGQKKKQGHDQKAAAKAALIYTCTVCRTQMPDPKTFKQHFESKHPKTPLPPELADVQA
# T4: Znf706 N-terminal peptide (Homo sapiens, UniProt Q9Y5V0 1-35)
# T4 chain: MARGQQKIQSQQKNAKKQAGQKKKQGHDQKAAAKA
# B1: Kit*, 6-FAM (structured_DNA)
# DNA: GGCGAGGAGGGGCGTGGCCGGC
# B2: G4C2 4-repeat (structured_DNA)
# DNA: GGGGCCGGGGCCGGGGCCGGGGCC
# B3: GGGG hairpin (structured_DNA)
# DNA: GGTTGGGGTTGTTTTCAACCCCAACC
# B4: cMyc (Pu19_A2A11) (structured_DNA)
# DNA: TAGGGAGGGTAGGGAGGGT
# B5: TERRA, 6-FAM (structured_RNA)
# RNA: UAGGGUUAGGGUUAGGGUUAGGG
# B6: GGA hairpin (structured_DNA)
# DNA: GGAAGGAAGGTTTTCCTTCCTTCC
# B7: hTel, 6-FAM (structured_DNA)
# DNA: TTGGGTTAGGGTTAGGGTTAGGGA
# B8: Bcl2SH, 6-FAM (structured_DNA)
# DNA: AGGAGGGGGGCGGGA
# B9: Bcl2SH duplex (dsDNA)
# DNA 1: AGGAGGGGGGCGGGA
# DNA 2: TCCCGCCCCCCTCCT
# B10: cMyc (Pu19_A2A11), 6-FAM (structured_DNA)
# DNA: TAGGGAGGGTAGGGAGGGT
# B11: Bcl2WT, 6-FAM (structured_DNA)
# DNA: GGGCGCGGGAGGAAGGGGGCGGG
# Experiments:
# Znf706 [1] = molecular target: T1, Znf706; assay: MST; range over all G4s; weakest; exact value in figure; FP/anisotropy: 20 mM NaPi, 100 mM KCl, 0.05% NaN3, pH 7.4, 25 C (LiCl variant: 20 mM Tris-HCl, 100 mM LiCl, pH 7.4; NaCl variant: 20 mM NaPi, 100 mM NaCl, pH 7.4); NMR: 20 mM NaPi, 100 mM KCl, 7.5% D2O, pH 7.4, 4-50 C; conditions: protein: recombinant; tags: none (His6-SUMO cleaved); chain copies: 2; label: 5' 6-FAM
# Znf706 A2C-AF488 = molecular target: T2, Znf706 A2C-AF488; assay: fluorescence anisotropy; FP/anisotropy: 20 mM NaPi, 100 mM KCl, 0.05% NaN3, pH 7.4, 25 C (LiCl variant: 20 mM Tris-HCl, 100 mM LiCl, pH 7.4; NaCl variant: 20 mM NaPi, 100 mM NaCl, pH 7.4); NMR: 20 mM NaPi, 100 mM KCl, 7.5% D2O, pH 7.4, 4-50 C; conditions: protein: recombinant, tags: none (His6-SUMO cleaved), AF488 label
# Znf706 [2] = molecular target: T1, Znf706; assay: NMR; 37 C; FP/anisotropy: 20 mM NaPi, 100 mM KCl, 0.05% NaN3, pH 7.4, 25 C (LiCl variant: 20 mM Tris-HCl, 100 mM LiCl, pH 7.4; NaCl variant: 20 mM NaPi, 100 mM NaCl, pH 7.4); NMR: 20 mM NaPi, 100 mM KCl, 7.5% D2O, pH 7.4, 4-50 C; conditions: protein: recombinant; tags: none (His6-SUMO cleaved); chain copies: 2; hairpin
# Znf706 A2C-MTSL = molecular target: T3, Znf706 A2C-MTSL; assay: PRE NMR; 2:1 protein:DNA, 100 mM KCl, 4 C; FP/anisotropy: 20 mM NaPi, 100 mM KCl, 0.05% NaN3, pH 7.4, 25 C (LiCl variant: 20 mM Tris-HCl, 100 mM LiCl, pH 7.4; NaCl variant: 20 mM NaPi, 100 mM NaCl, pH 7.4); NMR: 20 mM NaPi, 100 mM KCl, 7.5% D2O, pH 7.4, 4-50 C; conditions: protein: recombinant; tags: none (His6-SUMO cleaved); MTSL spin label; parallel G4
# Znf706 [3] = molecular target: T1, Znf706; assay: MST; range over all G4s; strong; exact value in figure; FP/anisotropy: 20 mM NaPi, 100 mM KCl, 0.05% NaN3, pH 7.4, 25 C (LiCl variant: 20 mM Tris-HCl, 100 mM LiCl, pH 7.4; NaCl variant: 20 mM NaPi, 100 mM NaCl, pH 7.4); NMR: 20 mM NaPi, 100 mM KCl, 7.5% D2O, pH 7.4, 4-50 C; conditions: protein: recombinant; tags: none (His6-SUMO cleaved); chain copies: 2; label: 5' 6-FAM; parallel G4
# Znf706 [4] = molecular target: T1, Znf706; assay: NMR; 100 mM KCl; FP/anisotropy: 20 mM NaPi, 100 mM KCl, 0.05% NaN3, pH 7.4, 25 C (LiCl variant: 20 mM Tris-HCl, 100 mM LiCl, pH 7.4; NaCl variant: 20 mM NaPi, 100 mM NaCl, pH 7.4); NMR: 20 mM NaPi, 100 mM KCl, 7.5% D2O, pH 7.4, 4-50 C; conditions: protein: recombinant; tags: none (His6-SUMO cleaved); chain copies: 2; hairpin
# Znf706 [5] = molecular target: T1, Znf706; assay: MST; range over all G4s; less strong; exact value in figure; FP/anisotropy: 20 mM NaPi, 100 mM KCl, 0.05% NaN3, pH 7.4, 25 C (LiCl variant: 20 mM Tris-HCl, 100 mM LiCl, pH 7.4; NaCl variant: 20 mM NaPi, 100 mM NaCl, pH 7.4); NMR: 20 mM NaPi, 100 mM KCl, 7.5% D2O, pH 7.4, 4-50 C; conditions: protein: recombinant; tags: none (His6-SUMO cleaved); chain copies: 2; label: 5' 6-FAM; hybrid G4
# [6] = molecular target: T4, Znf706 N-terminal peptide; assay: fluorescence polarization; 100 mM KCl; range over three G4s; FP/anisotropy: 20 mM NaPi, 100 mM KCl, 0.05% NaN3, pH 7.4, 25 C (LiCl variant: 20 mM Tris-HCl, 100 mM LiCl, pH 7.4; NaCl variant: 20 mM NaPi, 100 mM NaCl, pH 7.4); NMR: 20 mM NaPi, 100 mM KCl, 7.5% D2O, pH 7.4, 4-50 C; conditions: label: 5' 6-FAM
# Znf706 [7] = molecular target: T1, Znf706; assay: fluorescence polarization; 100 mM KCl; range over all G4s; strong; exact value in figure; FP/anisotropy: 20 mM NaPi, 100 mM KCl, 0.05% NaN3, pH 7.4, 25 C (LiCl variant: 20 mM Tris-HCl, 100 mM LiCl, pH 7.4; NaCl variant: 20 mM NaPi, 100 mM NaCl, pH 7.4); NMR: 20 mM NaPi, 100 mM KCl, 7.5% D2O, pH 7.4, 4-50 C; conditions: protein: recombinant; tags: none (His6-SUMO cleaved); chain copies: 2; label: 5' 6-FAM; parallel G4
# Znf706 [8] = molecular target: T1, Znf706; assay: NMR; competitive titration with Bcl2SH G4; FP/anisotropy: 20 mM NaPi, 100 mM KCl, 0.05% NaN3, pH 7.4, 25 C (LiCl variant: 20 mM Tris-HCl, 100 mM LiCl, pH 7.4; NaCl variant: 20 mM NaPi, 100 mM NaCl, pH 7.4); NMR: 20 mM NaPi, 100 mM KCl, 7.5% D2O, pH 7.4, 4-50 C; conditions: protein: recombinant; tags: none (His6-SUMO cleaved); chain copies: 2; blunt
# Znf706 [9] = molecular target: T1, Znf706; assay: fluorescence polarization; 100 mM KCl; range over all G4s; less strong; exact value in figure; FP/anisotropy: 20 mM NaPi, 100 mM KCl, 0.05% NaN3, pH 7.4, 25 C (LiCl variant: 20 mM Tris-HCl, 100 mM LiCl, pH 7.4; NaCl variant: 20 mM NaPi, 100 mM NaCl, pH 7.4); NMR: 20 mM NaPi, 100 mM KCl, 7.5% D2O, pH 7.4, 4-50 C; conditions: protein: recombinant; tags: none (His6-SUMO cleaved); chain copies: 2; label: 5' 6-FAM; hybrid G4
binder,measurement,setting,value
B1,Kd,Znf706 [1],~4.47 µM
B2,binding result,Znf706 A2C-AF488,binds
B3,binding result,Znf706 [2],no binding
B4,binding result,Znf706 A2C-AF488; parallel G4,binds
same,binding result,Znf706 A2C-MTSL,binds
B5,Kd,Znf706 [3],~4.47 µM
B6,binding result,Znf706 [4],no binding
B7,Kd,Znf706 [5],~4.47 µM
B8,Kd,[6]; parallel G4,~17.2 µM
same,Kd,Znf706 [7],~4.47 µM
B9,binding result,Znf706 [8],no binding
B10,Kd,[6]; parallel G4,~17.2 µM
same,Kd,Znf706 [7],~4.47 µM
B11,Kd,[6]; hybrid G4,~17.2 µM
same,Kd,Znf706 [9],~4.47 µM
